Where two headings read alike, the source gives them in different places.
T1: Bcl-w
T1 chain: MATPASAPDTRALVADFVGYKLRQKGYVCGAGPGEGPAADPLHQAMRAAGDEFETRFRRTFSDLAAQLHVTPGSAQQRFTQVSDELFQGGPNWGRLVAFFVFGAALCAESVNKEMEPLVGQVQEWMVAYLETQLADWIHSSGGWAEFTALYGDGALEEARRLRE

B1: Bad BH3 V20A, phage-displayed (peptide)
peptide: NLWAAQRYGRELRRMSDEFADSFKKG
notes: M13 phage display: FLAG-26mer-GGGT-g3(249-406)
B2: Bad BH3 Y8A, phage-displayed (peptide)
peptide: NLWAAQRAGRELRRMSDEFVDSFKKG
notes: as for B1
B3: Bad BH3 L2A, phage-displayed (peptide)
peptide: NAWAAQRYGRELRRMSDEFVDSFKKG
notes: as for B1
B4: Bad BH3 N1A, phage-displayed (peptide)
peptide: ALWAAQRYGRELRRMSDEFVDSFKKG
notes: as for B1
B5: Bad BH3 F23A, phage-displayed (peptide)
peptide: NLWAAQRYGRELRRMSDEFVDSAKKG
notes: as for B1
B6: Bad BH3 D21A, phage-displayed (peptide)
peptide: NLWAAQRYGRELRRMSDEFVASFKKG
notes: as for B1
B7: Bad BH3 S22A, phage-displayed (peptide)
peptide: NLWAAQRYGRELRRMSDEFVDAFKKG
notes: as for B1
B8: Bid BH3 N7A, phage-displayed (peptide)
peptide: QEDIIRAIARHLAQVGDSMDRSIPPG
notes: as for B1
B9: Bid BH3 P25A, phage-displayed (peptide)
peptide: QEDIIRNIARHLAQVGDSMDRSIPAG
notes: as for B1
B10: Bad BH3 A4E, phage-displayed (peptide)
peptide: NLWEAQRYGRELRRMSDEFVDSFKKG
notes: as for B1
B11: Bid BH3 E2A, phage-displayed (peptide)
peptide: QADIIRNIARHLAQVGDSMDRSIPPG
notes: as for B1
B12: Bad BH3 W3A, phage-displayed (peptide)
peptide: NLAAAQRYGRELRRMSDEFVDSFKKG
notes: as for B1
B13: Bid BH3 D20A, phage-displayed (peptide)
peptide: QEDIIRNIARHLAQVGDSMARSIPPG
notes: as for B1
B14: Bad BH3 R7A, phage-displayed (peptide)
peptide: NLWAAQAYGRELRRMSDEFVDSFKKG
notes: as for B1
B15: Bid BH3 H11A, phage-displayed (peptide)
peptide: QEDIIRNIARALAQVGDSMDRSIPPG
notes: as for B1
B16: Bid BH3 G26E, phage-displayed (peptide)
peptide: QEDIIRNIARHLAQVGDSMDRSIPPE
notes: as for B1
B17: Bid BH3 wild type, phage-displayed (peptide)
peptide: QEDIIRNIARHLAQVGDSMDRSIPPG
notes: M13 phage display: FLAG-26mer-GGGT-g3(249-406); also called wtBid
B18: Bad BH3 M15A, phage-displayed (peptide)
peptide: NLWAAQRYGRELRRASDEFVDSFKKG
notes: as for B1
B19: Bid BH3 R10A, phage-displayed (peptide)
peptide: QEDIIRNIAAHLAQVGDSMDRSIPPG
notes: as for B1
B20: Bid BH3 R6A, phage-displayed (peptide)
peptide: QEDIIANIARHLAQVGDSMDRSIPPG
notes: as for B1
B21: Bid BH3 I4A, phage-displayed (peptide)
peptide: QEDAIRNIARHLAQVGDSMDRSIPPG
notes: as for B1
B22: Bad BH3 A5E, phage-displayed (peptide)
peptide: NLWAEQRYGRELRRMSDEFVDSFKKG
notes: as for B1
B23: Bad BH3 K24A, phage-displayed (peptide)
peptide: NLWAAQRYGRELRRMSDEFVDSFAKG
notes: as for B1
B24: Bid BH3 I5A, phage-displayed (peptide)
peptide: QEDIARNIARHLAQVGDSMDRSIPPG
notes: as for B1
B25: Bid BH3 S18A, phage-displayed (peptide)
peptide: QEDIIRNIARHLAQVGDAMDRSIPPG
notes: as for B1
B26: Bad BH3 R13A, phage-displayed (peptide)
peptide: NLWAAQRYGRELARMSDEFVDSFKKG
notes: as for B1
B27: Bid BH3 I23A, phage-displayed (peptide)
peptide: QEDIIRNIARHLAQVGDSMDRSAPPG
notes: as for B1
B28: Bid BH3 P24A, phage-displayed (peptide)
peptide: QEDIIRNIARHLAQVGDSMDRSIAPG
notes: as for B1
B29: Bad BH3 R10A, phage-displayed (peptide)
peptide: NLWAAQRYGAELRRMSDEFVDSFKKG
notes: as for B1
B30: Bid BH3 Q1A, phage-displayed (peptide)
peptide: AEDIIRNIARHLAQVGDSMDRSIPPG
notes: as for B1
B31: Bad BH3 wild type, phage-displayed (peptide)
peptide: NLWAAQRYGRELRRMSDEFVDSFKKG
notes: M13 phage display: FLAG-26mer-GGGT-g3(249-406); also called wtBad
B32: Bid BH3 S22A, phage-displayed (peptide)
peptide: QEDIIRNIARHLAQVGDSMDRAIPPG
notes: as for B1
B33: Bid BH3 A13E, phage-displayed (peptide)
peptide: QEDIIRNIARHLEQVGDSMDRSIPPG
notes: as for B1
B34: Bad BH3 R14A, phage-displayed (peptide)
peptide: NLWAAQRYGRELRAMSDEFVDSFKKG
notes: as for B1
B35: Bad BH3 Q6A, phage-displayed (peptide)
peptide: NLWAAARYGRELRRMSDEFVDSFKKG
notes: as for B1
B36: Bad BH3 K25A, phage-displayed (peptide)
peptide: NLWAAQRYGRELRRMSDEFVDSFKAG
notes: as for B1
B37: Bid BH3 V15A, phage-displayed (peptide)
peptide: QEDIIRNIARHLAQAGDSMDRSIPPG
notes: as for B1
B38: Bad BH3 G26E, phage-displayed (peptide)
peptide: NLWAAQRYGRELRRMSDEFVDSFKKE
notes: as for B1
B39: Bid BH3 I8A, phage-displayed (peptide)
peptide: QEDIIRNAARHLAQVGDSMDRSIPPG
notes: as for B1
B40: Bid BH3 R21A, phage-displayed (peptide)
peptide: QEDIIRNIARHLAQVGDSMDASIPPG
notes: as for B1
B41: Bad BH3 D17A, phage-displayed (peptide)
peptide: NLWAAQRYGRELRRMSAEFVDSFKKG
notes: as for B1
B42: Bid BH3 L12A, phage-displayed (peptide)
peptide: QEDIIRNIARHAAQVGDSMDRSIPPG
notes: as for B1
B43: Bid BH3 Q14A, phage-displayed (peptide)
peptide: QEDIIRNIARHLAAVGDSMDRSIPPG
notes: as for B1
B44: Bid BH3 D3A, phage-displayed (peptide)
peptide: QEAIIRNIARHLAQVGDSMDRSIPPG
notes: as for B1
B45: Bad BH3 E18A, phage-displayed (peptide)
peptide: NLWAAQRYGRELRRMSDAFVDSFKKG
notes: as for B1

Key:
Assay in all cases: competition phage ELISA
Bcl-w [1] = target: T1, Bcl-w
Bcl-2 = target: Bcl-2
Bcl-w [2] = target: T1, Bcl-w

Chain of Bcl-2 (chain, as listed by the source): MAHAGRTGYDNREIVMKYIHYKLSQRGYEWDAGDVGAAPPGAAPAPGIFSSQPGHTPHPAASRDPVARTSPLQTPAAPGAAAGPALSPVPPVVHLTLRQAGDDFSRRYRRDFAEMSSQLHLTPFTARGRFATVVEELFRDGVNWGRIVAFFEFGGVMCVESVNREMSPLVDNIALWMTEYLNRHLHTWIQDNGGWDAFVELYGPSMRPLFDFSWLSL

Binder	Fold/wt (Bcl-w [1])	IC50 (Bcl-w [1])	Fold/wt (Bcl-2)	IC50 (Bcl-2)	Fold/wt (Bcl-w [2])	IC50 (Bcl-w [2])
B1	1 fold	38 nM	1 fold	13 nM	–	–
B2	2 fold	77 nM	1 fold	19 nM	–	–
B3	1 fold	35 nM	1 fold	7 nM	–	–
B4	1 fold	47 nM	1 fold	10 nM	–	–
B5	2 fold	83 nM	–	–	–	–
B6	1 fold	28 nM	1 fold	17 nM	–	–
B7	2 fold	77 nM	1 fold	19 nM	–	–
B8	–	–	–	–	1 fold	25 nM
B9	–	–	–	–	1 fold	26 nM
B10	1 fold	46 nM	1 fold	10 nM	–	–
B11	–	–	–	–	2 fold	34 nM
B12	1 fold	33 nM	1 fold	12 nM	–	–
B13	–	–	–	–	1 fold	24 nM
B14	1 fold	32 nM	1 fold	14 nM	–	–
B15	–	–	–	–	1 fold	17 nM
B16	–	–	–	–	1 fold	25 nM
B17	–	–	–	–	1 fold	23 nM
B18	1 fold	43 nM	3 fold	43 nM	–	–
B19	–	–	–	–	2 fold	46 nM
B20	–	–	–	–	2 fold	42 nM
B21	–	–	–	–	1 fold	23 nM
B22	4 fold	152 nM	2 fold	26 nM	–	–
B23	1 fold	54 nM	1 fold	14 nM	–	–

Binder	Fold/wt (Bcl-w [1])	IC50 (Bcl-w [1])	Fold/wt (Bcl-2)	IC50 (Bcl-2)	Fold/wt (Bcl-w [2])	IC50 (Bcl-w [2])
B24	–	–	–	–	2 fold	34 nM
B25	–	–	–	–	1 fold	31 nM
B26	1 fold	52 nM	1 fold	19 nM	–	–
B27	–	–	–	–	1 fold	18 nM
B28	–	–	–	–	1 fold	25 nM
B29	1 fold	41 nM	1 fold	14 nM	–	–
B30	–	–	–	–	1 fold	29 nM
B31	1 fold	37 nM	1 fold	13 nM	–	–
B32	–	–	–	–	1 fold	27 nM
B33	–	–	–	–	11 fold	253 nM
B34	2 fold	86 nM	5 fold	57 nM	–	–
B35	1 fold	47 nM	1 fold	18 nM	–	–
B36	1 fold	46 nM	1 fold	13 nM	–	–
B37	–	–	–	–	3 fold	59 nM
B38	1 fold	37 nM	1 fold	15 nM	–	–
B39	–	–	–	–	8 fold	182 nM
B40	–	–	–	–	2 fold	52 nM
B41	3 fold	128 nM	–	–	–	–
B42	–	–	–	–	25 fold	553 nM
B43	–	–	–	–	1 fold	25 nM
B44	–	–	–	–	1 fold	34 nM
B45	1 fold	55 nM	2 fold	29 nM	–	–

— US20090048164A1 (WALTER AND ELIZA HALL INSTITUTE OF MEDICAL RESEARCH, published 2009)
